Laboratory results from publication PMC10165876.
pKd: −log10 of the molar value.

Columns and labels:
[1] = molecular target: NKp46–Ig (ACROBiosystems), used for MST and BLI (human) (UniProt O76036); assay: MST
[2] = molecular target: MYC-tagged NKp46 (extracellular domain) (human) (UniProt O76036); assay: MST

Substance	pKd [1]	pKd [2]
influenza haemagglutinin, His-tagged (natural protein)	5.84	
CRT P domain fused to the Fc region of human Ig (Fc fusion)		4.39
